US8148112B2, “Sugar chain containing 4-position halogenated galactose and application thereof” (National University Corporation Hokkaido University, priority 2005, dated 2012)

Assay: Galactose-1-phosphate uridylyltransferase (GalT) activity of the enzyme liquid
Assay type: biochemical, E. coli
Conditions: galactose-1-phosphate uridylyltransferase activity of purified enzyme liquid, method by Takeda et al.
Procedure: E. coli (JM109 strain) (from Takara Bio) was transformed with a pTrc-GalT plasmid (JP-A-2002-335988) in which a gene encoding E. coli-derived GalT has been inserted. The transformed cells were inoculated to a 2×YT medium (50 mL) containing 100 μg/mL ampicillin, followed by shake culturing at 37° C. When the number of the cells reached 1×10^8 cells/mL, IPTG was added to the culture so as to adjust the final concentration to 1 mM, and shake culture was continued for further five hours. After completion of culturing, cells were collected through centrifugation (9,000×g, 20 min) and suspended in a buffer (50 mM HEPES-NaOH (pH: 8.0), 0.1 mM zinc sulfate, 10 mM 2-mercaptoethanol, and 50 mM sodium chloride) […]). The cells were disrupted through ultrasonication, and the product was centrifuged (20,000×g, 10 min), to thereby remove cell residues.
The thus-produced fraction was employed as an enzyme liquid in the following synthesis reactions. The galactose-1-phosphate uridylyltransferase (GalT) activity of the enzyme liquid was determined (Table 1). In the present invention, GalT activity was determined through a method by Takeda et al. (JP-A-2002-335988). The thus-yielded galactose-1-phosphate uridylyltransferase is identical to hexose-1-phosphate uridylyltransferase and catalyzes the same reaction (E.C.2.7.7.12).

B1: GalT: E. coli-derived galactose-1-phosphate uridylyltransferase, purified enzyme liquid (protein, UniProt P09148 1-348, looked up)
Galactose-1-phosphate …: MTQFNPVDHPHRRYNPLTGQWILVSPHRAKRPWQGAQETPAKQVLPAHDPDCFLCAGNVRVTGDKNPDYTGTYVFTNDFAALMSDTPDAPESHDPLMRCQSARGTSRVICFSPDHSKTLPELSVAALTEIVKTWQEQTAELGKTYPWVQVFENKGAAMGCSNPHPHGQIWANSFLPNEAEREDRLQKEYFAEQKSPMLVDYVQRELADGSRTVVETEHWLAVVPYWAAWPFETLLLPKAHVLRITDLTDAQRSDLALALKKLTSRYDNLFQCSFPYSMGWHGAPFNGEENQHWQLHAHFYPPLLRSATVRKFMVGYEMLAETQRDLTAEQAAERLRAVSDIHFRESGV
- Enzymatic activity: 46.7 units/mg protein
